# What was measured:
# Experiment in all cases: two-hybrid library CCNG1;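 further: natural log of median RNA to DNA barcode read ratio; higher means stronger binding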
# 4H932-bA = target: T1, 4H932-bA
# T1 chain: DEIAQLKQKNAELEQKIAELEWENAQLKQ
# 4H949-bA = target: T2, 4H949-bA
# T2 chain: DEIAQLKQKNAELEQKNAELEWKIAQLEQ
# 4H2760-bN = target: T3, 4H2760-bN
# T3 chain: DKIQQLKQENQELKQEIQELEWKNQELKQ
# 4H2931-bA = target: T4, 4H2931-bA
# T4 chain: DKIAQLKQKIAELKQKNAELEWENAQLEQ
# 4H2760-bA = target: T5, 4H2760-bA
# T5 chain: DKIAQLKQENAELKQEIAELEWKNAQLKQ
# 4H3041-bA = target: T6, 4H3041-bA
# T6 chain: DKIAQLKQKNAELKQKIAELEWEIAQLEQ
# 4H56-bA = target: T7, 4H56-bA
# T7 chain: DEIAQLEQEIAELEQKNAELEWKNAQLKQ
# 4H730-bA = target: T8, 4H730-bA
# T8 chain: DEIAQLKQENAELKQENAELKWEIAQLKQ
# 4H349-bA = target: T9, 4H349-bA
# T9 chain: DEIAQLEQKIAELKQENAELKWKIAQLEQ
# 4H3381-bA = target: T10, 4H3381-bA
# T10 chain: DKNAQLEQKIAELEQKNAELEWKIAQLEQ
# 4H967-bN = target: T11, 4H967-bN
# T11 chain: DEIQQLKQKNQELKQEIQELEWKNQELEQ
# 4H3297-bA = target: T12, 4H3297-bA
# T12 chain: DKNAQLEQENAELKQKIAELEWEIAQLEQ
# 4H626-bA = target: T13, 4H626-bA
# T13 chain: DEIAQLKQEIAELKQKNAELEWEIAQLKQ
# 4H3364-bA = target: T14, 4H3364-bA
# T14 chain: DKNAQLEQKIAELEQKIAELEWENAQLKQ
# 4H2859-bA = target: T15, 4H2859-bA
# T15 chain: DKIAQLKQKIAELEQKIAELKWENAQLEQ
# 4H796-bA = target: T16, 4H796-bA
# T16 chain: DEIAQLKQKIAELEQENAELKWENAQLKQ
binder,measurement,setting,value
DKIAQLKQENAELKQEIAELEWKNAQLKQ [4H2760-bA],interaction score,4H932-bA,0.295
same,interaction score,4H949-bA,-1.14
same,interaction score,4H2760-bN,-1.33
same,interaction score,4H2931-bA,-0.0923
same,interaction score,4H2760-bA,0.895
same,interaction score,4H3041-bA,0.518
same,interaction score,4H56-bA,-1.54
same,interaction score,4H730-bA,-0.287
same,interaction score,4H349-bA,-0.95
same,interaction score,4H3381-bA,-0.726
same,interaction score,4H967-bN,-2.38
same,interaction score,4H3297-bA,1.18
same,interaction score,4H626-bA,-2.94
same,interaction score,4H3364-bA,0.448
same,interaction score,4H2859-bA,0.0768
same,interaction score,4H796-bA,-0.576

# — article PMC10397247
